The values below come from patent US10428327B2, “Compositions and methods for enhancing homologous recombination” (LIFE TECHNOLOGIES CORPORATION, priority 2016, dated 2019).

Oligonucleotides are written 5' to 3', each unit as a sugar letter and its base; * is a phosphorothioate linkage, no mark a phosphodiester; rarer units and linkages stand in square brackets, end groups in braces. Plain capitals give the bases only. d = 2'-deoxy (DNA)

For series [1], the system named is rabbit embryos. The following applies: in vitro and in vivo; cited from earlier work.
Series [2] relates to HEK293T cells. The settings on record: synchronization at M phase prior to nucleofection; cited from earlier work.
For series [3], the system named is hESCs. The following applies: synchronization at M phase prior to nucleofection; cited from earlier work.
The target in series [4] is T1, DNA ligase IV (Homo sapiens, UniProt P49917).
T1 sequence (P49917 1-911): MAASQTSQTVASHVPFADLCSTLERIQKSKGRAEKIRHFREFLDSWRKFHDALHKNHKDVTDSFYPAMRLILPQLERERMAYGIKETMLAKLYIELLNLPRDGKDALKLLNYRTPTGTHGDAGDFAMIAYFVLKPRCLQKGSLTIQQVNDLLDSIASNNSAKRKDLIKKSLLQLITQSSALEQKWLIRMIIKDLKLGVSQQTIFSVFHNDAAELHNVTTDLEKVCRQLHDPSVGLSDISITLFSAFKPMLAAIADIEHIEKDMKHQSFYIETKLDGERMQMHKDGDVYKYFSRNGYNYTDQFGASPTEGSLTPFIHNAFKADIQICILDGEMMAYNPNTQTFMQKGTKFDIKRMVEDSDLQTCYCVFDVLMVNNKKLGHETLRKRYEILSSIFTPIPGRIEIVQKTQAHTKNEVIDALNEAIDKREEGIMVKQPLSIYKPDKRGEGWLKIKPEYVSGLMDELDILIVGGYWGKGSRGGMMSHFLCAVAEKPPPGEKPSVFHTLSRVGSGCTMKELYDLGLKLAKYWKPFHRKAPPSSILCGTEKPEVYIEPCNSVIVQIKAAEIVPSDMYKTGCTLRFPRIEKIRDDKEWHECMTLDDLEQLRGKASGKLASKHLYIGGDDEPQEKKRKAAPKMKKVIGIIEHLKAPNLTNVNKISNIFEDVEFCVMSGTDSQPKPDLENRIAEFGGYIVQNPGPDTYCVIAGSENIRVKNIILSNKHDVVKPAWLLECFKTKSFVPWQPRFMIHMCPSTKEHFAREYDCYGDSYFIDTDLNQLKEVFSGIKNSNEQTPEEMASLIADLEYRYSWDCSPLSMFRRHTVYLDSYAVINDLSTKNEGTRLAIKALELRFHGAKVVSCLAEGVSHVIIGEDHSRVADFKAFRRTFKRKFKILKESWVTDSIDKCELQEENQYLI
The settings on record: cited from earlier work.

For series [5], the system named is eBFP locus in HEK293 cells expressing eBFP. Put plainly: Genomic cleavage and detection assay at eBFP locus after Cas9 RNP and FLAG/EcoRI donor. The series is classed as cell-based. The following applies: sequential delivery, 48 hours post transfection. The text has this: FIG. 11. Insertion of a FLAG tag along with an EcoRI site using dsDNA donor with single-stranded overhangs. (A) Various donor DNA molecules containing a 30-base FLAG tag along with an EcoRI site were designed and synthesized, including single-stranded DNA donor (ssDNA), blunt-end dsDNA donor (blunt), dsDNA donor with 5′ overhang (5′), dsDNA donor with 3′ overhang (3′). The length of overhangs varied from 6 nucleotides (6), 15 nucleotides (15) to 30 nucleotides (30). The 3′ and 5′ ends of the oligonucleotides harbored two consecutive phosphorothioate-modified bases (Table 4). The short dsDNA donors with and without overhangs were prepared by annealing two short DNA oligonucleotides. […] At 48 hours post transfection, the eBFP locus was PCR-amplified. The resulting PCR fragments were analyzed by the genomic cleavage and detection assays to determine the percentage of Indel or subjected to restriction digestion with EcoRI to determine the percentage of digestion. (B) Length of 3′ overhang. […] Alternatively, a dsDNA donor with 30-base 3′ overhang but without phosphorothioate modification (30-3′n) was used. The percentage of digestion with EcoRI was determined at 48 hours post transfection. (C) Dose effect. […] The eBFP loci were PCR-amplified. The resulting PCR fragments were analyzed by EcoRI digest. (D) Sequencing verification. The PCR fragments were cloned into E. coli and 192 clones were randomly picked for sequencing. The relative percentage of wild type (wt), NHEJ, and HDR clones derived from either ssDNA donor (ssDNA) or dsDNA with 3′ overhangs (3′ overhang) was plotted. The white rectangles represented the population of clones that contained the insert but with a point mutation. Examples of edited clones were shown in (E) (not representing the actual percentages of NHEJ and HDR). The underlined sequences represented the FLAG tag along with an RI site. FIG. 11 discloses SEQ ID NOs: 15-24, respectively, from top to bottom.
The genomic cleavage efficiency was measured by GENEART® Genomic Cleavage Detection kit according to manufacturer's instructions. The primer sequences for PCR amplification of each genomic locus are described in Table 4. Cells were analyzed at 48 to 72 hours post transfection. The cleavage efficiencies were calculated based on the relative agarose gel band intensity, which were quantified using an […]® gel documentation system running […]®, Version 3.4.0.0. ProteinSimple (San Jose, Calif., USA).
To extend this concept, we hypothesized that a dsDNA donor harboring single-stranded overhangs would facilitate HDR to higher levels than with blunt ends. To test this hypothesis, we designed and generated a series of donor molecules with either blunt end, 5′ end protrusion or 3′ end protrusion by annealing two small single-stranded oligonucleotides. A single-stranded DNA donor was used as a control. The 5′ and 3′ ends of oligonucleotides were protected with two consecutive phosphorothioate-modified bases (Table 3). For proof of concept, we inserted a 30 nucleotide FLAG epitope tag along with an EcoRI site into the BFP gene stably expressed in HEK293 cells. The gRNA was designed to target the top DNA strand. The length of single-stranded overhangs varied from 6 nucleotides to 30 nucleotides. The oligonucleotides were denatured and re-annealed prior to transfection forming the structures described in FIG. 11A. […] Co-delivery of Cas9 RNPs and donor DNA gave lower HDR efficiencies. At 48 hours post transfection, the genomic locus was PCR-amplified and the editing efficiencies were determined using a GCD assay. […] When the PCR fragments were subjected to restriction digestion with EcoRI to identify properly inserted constructs, only the donor DNA molecules containing 30-base single-stranded overhangs at the 3′ ends produced the expected digested fragments (30-3′ in FIG. 11, panel A). […]

The test system is the same in series [6]. Put plainly: EcoRI restriction digestion of PCR-amplified eBFP locus (FLAG tag/EcoRI insertion). It is filed as cell-based. The following applies: 48 hours.
The mark [7] stands for this setting: FIG. 11A, donor configurations, sequential delivery.

In the case of `O=C(Nc1ccc(Br)cc1)c1ccc(Br)c(S(=O)(=O)NCc2ccccc2)c1` [RS-1], the increased knock-in efficiency in series [1] was 2-5 fold.
With `COC(=O)Nc1nc2ccc(C(=O)c3cccs3)cc2[nH]1` [nocodazole], the HDR result in series [2] was “up to 38%”; in series [3], ≤ 1.6%.
For Scr7, the “increase in HDR efficiency” value in series [4] was “up to 19 fold”.

B1: 15-3′: dsDNA donor with 15 nucleotide 3′ overhangs, annealed SEQ ID 83 and 84 (nucleic acid)
chain 1: dG*dA*dCdTdAdCdAdAdAdGdAdCdGdAdTdGdAdCdGdAdCdAdAdGdAdAdTdTdCdTdTdAdCdGdGdCdGdTdGdCdAdGdT*dG*dC
chain 2: dA*dA*dGdAdAdTdTdCdTdTdGdTdCdGdTdCdAdTdCdGdTdCdTdTdTdGdTdAdGdTdCdGdGdTdCdAdGdGdGdTdGdGdTdC*dA*dC
modifications: further chemistry not fully specified
On to B1, for which the “Avg (% Indels)” value in series [5] was 81.00%. Moreover, the “Avg (% digestion)” value is 0.50% in series [6] (setting [7]) and 0.8% in series [6] (FIG. 11B, length of 3′ overhang).

B2: 15-5′: dsDNA donor with 15 nucleotide 5′ overhangs, annealed SEQ ID 81 and 82 (nucleic acid)
chain 1: dG*dT*dGdAdCdCdAdCdCdCdTdGdAdCdCdGdAdCdTdAdCdAdAdAdGdAdCdGdAdTdGdAdCdGdAdCdAdAdGdAdAdTdTdC*dT*dT
chain 2: dG*dC*dAdCdTdGdCdAdCdGdCdCdGdTdAdAdGdAdAdTdTdCdTdTdGdTdCdGdTdCdAdTdCdGdTdCdTdTdTdGdTdAdG*dT*dC
modifications: Two annealed DNA oligonucleotides with 5' overhangs, further chemistry not fully specified
B2: in series [5], the “Avg (% Indels)” value is listed as 69.50%. Moreover, the “Avg (% digestion)” value in series [6] (setting [7]) is recorded as 0.00%.

B3: 30-5′: dsDNA donor with 30 nucleotide 5′ overhangs, annealed SEQ ID 85 and 86 (nucleic acid)
chain 1: dG*dT*dGdCdCdCdTdGdGdCdCdCdAdCdCdCdTdCdGdTdGdAdCdCdAdCdCdCdTdGdAdCdCdGdAdCdTdAdCdAdAdAdGdAdCdGdAdTdGdAdCdGdAdCdAdAdGdAdAdTdTdC*dT*dT
chain 2: dG*dT*dGdGdTdCdGdGdGdGdTdAdGdCdGdGdCdTdGdAdAdGdCdAdCdTdGdCdAdCdGdCdCdGdTdAdAdGdAdAdTdTdCdTdTdGdTdCdGdTdCdAdTdCdGdTdCdTdTdTdGdTdAdG*dT*dC
modifications: Two annealed DNA oligonucleotides with 5' overhangs, further chemistry not fully specified
On to B3, for which the “Avg (% Indels)” value in series [5] is listed as 80.00%. Moreover, the “Avg (% digestion)” value in series [6] (setting [7]) was 1.00%.
